# B1: TAR RNA 29-mer (ssRNA)
# RNA: CCCAGAUCUGAGCCUGGGAGCUCUCUGGG
# B2: RRE RNA (ssRNA)
# RNA: CGUGUGGGCGCAGCGUCAAUGACGCUGCGGUACACACG
# Assays:
# [1] = biological target: T1, Rev peptide (Human immunodeficiency virus 1); experiment: FRET quenching; TAMRA-Rev and DABCYL-TAR; 50 mM Tris pH 8, 50 mM KCl, room temp; conditions: protein: synthetic; tags: chemically synthesised peptide; N-terminal TAMRA; label: 3'-DABCYL or 5'-Cy3; hairpin with bulge
# [2] = biological target: T1, Rev peptide; experiment: FRET quenching; ±23; TAMRA-Rev and DABCYL-RRE; 50 mM Tris pH 8, 50 mM KCl, room temp; conditions: protein: synthetic; tags: chemically synthesised peptide; N-terminal TAMRA; label: 3'-DABCYL or 5'-FAM; hairpin
Binder,Kd [1] [µM],Kd [2] [µM]
B1,11,–
B2,–,0.137
